What is called Kd is the equilibrium constant for the complex coming apart. Higher therefore signals weaker binding. What is called koff is the first-order rate constant of dissociation. A higher koff goes with fast dissociation. The term kon denotes the rate constant with which the complex forms. The low end stands for slow association, the high end for fast association.

This assay concerns the target SARS-CoV-2 spike receptor-binding domain, ancestral (amino acids 331-529), biotinylated (SARS-CoV-2, ancestral (Wuhan), UniProt P0DTC2, biotin (RBD expression vector co-expressed with BirA-Flag, 100 μM biotin added)). The assay is described as follows: BLI. As to conditions: both partners purified.

B1: NIV-10 Fab (Fab, V domains shown)
VH: EVQLVESGGGLVQPGGSLRLSCAASGFTFYSYWMTWVRQAPGKGLEWVANIKHDESESHYVDSVRGRFTISRDNAKNSVYLQMKGLRAEDTAVYYCARDGGYNILTAYYHAPSYWGQGTLVTVSS
VL: QSALTQPASVSGSPGQSITISCTGTSSDVGGYNFVSWYRQYPGKAPQLMIYDVSRRPSGDSDRFSGSKSGNTASLTISGLQAEDEAEYHCSSYTGRSPYVVFGGGTKVTVL
Regarding B1, the Kd was found to be 5.42 pM, the koff amounted to 1.24e-06 s⁻¹ and the kon was 223000 M⁻¹ s⁻¹.

B2: NIV-8 Fab (Fab, V domains shown)
VH: EVQLVESGGGVVQPGRSLRLSCAASGFKFSKFAMHWVRQAPGKGPEWVAVISYDGNQYHSADSVKGRFTISRDNSFNTLYLQMNSLGPEDTAVYYCARDGPDTSGYYANIYFDFWGQGTLVTVSS
VL: QSVLTQPPSVSGAPGQRVTISCTGSSSNIGAGYDVHWYQQLPGRAPKLLIFDNNNRPSGVPDRFSGSKSGTSASLAITGLQTEDEAYYYCQSYDNSLILAVFGGGTKVTVL
With B2, the Kd came out at 10.9 pM, the koff turned out to be 1.15e-06 s⁻¹ and the kon stood at 106000 M⁻¹ s⁻¹.

B3: NIV-13 Fab (Fab, V domains shown)
VH: EVQLLESGGGLVQPGGSLRLSCAASGFTFSRYALSWVRQAPGKGLEWVSAISGAAITTYYADSVKGRFTISRDDSRNTLFMQMDSLRAEDTAVYYCAKGDYYDSSGYLAEYFPHWGQGTLVTVSS
VL: SYELTQPPSVSVSPGQTARITCFADALPKQHAYWYQQKAGQAPVLVIFKDTERPSGIPKRFSGSRSGATVTLTISGVQAEDEADYYCQSTDISGVLFGGGTKLTVL
B3 came in with a Kd of 7.33 pM, a koff of 1.19e-06 s⁻¹ and an on-rate constant (kon) of 163000 M⁻¹ s⁻¹.

B4: NIV-11 Fab (Fab, V domains shown)
VH: QLVQSGPEVKKPGTSVKVSCKASGFTFYYSAVQWVRQARGQRLEWLGWMAVGSGKANYAQKFQERLTLTRDMSTSTAYMELSSLRSEDTAVYYCAAPNCTGGSCYDGFNLWGQGTVVTVSS
VL: EIVLTQSPGTLSLSPGDRAILSCRASQTVNSNYLAWYQQKPGQAPRLLIYGTSSRATGIPDRFSGSGSGTDFTLTISRLEPEDFAVYYCQQYGSSPWLFGQGTKVEIK
B4 gave a Kd of 20.8 pM, a koff of 1.12e-06 s⁻¹ and a kon of 53600 M⁻¹ s⁻¹.

The values are drawn from paper PMC10349087 (Nature Communications, 2023).
